In PMC7781310:

Key:
[1] = biological target: sACE2_(2).v2.4-IgG1 (human) (UniProt Q9BYF1); assay: BLI
[2] = biological target: Wild type sACE2_(2)-IgG1 (human) (UniProt Q9BYF1); assay: BLI

| Substance | Kd [1] | koff [1] | Kd [2] | koff [2] |
| --- | --- | --- | --- | --- |
| Rs4231 RBD-8h (domain or fragment) | 3.5 nM | 0.0016 s⁻¹ | 69 nM | 0.022 s⁻¹ |
| LYRa11 RBD-8h (domain or fragment) | 1.8 nM | 0.0025 s⁻¹ | 91 nM | 0.079 s⁻¹ |
| Rs7327 RBD-8h (domain or fragment) | 1.9 nM | 0.0018 s⁻¹ | 63 nM | 0.04 s⁻¹ |
| Rs4084 RBD-8h (domain or fragment) | 3.1 nM | 0.0015 s⁻¹ | 85 nM | 0.025 s⁻¹ |
| RsSHC014 RBD-8h (domain or fragment) |  | 0.002 s⁻¹ |  |  |
